The target of series [1] is T1, M.SsoII (monomer on DNA) (UniProt P34879 1-379).
T1 sequence: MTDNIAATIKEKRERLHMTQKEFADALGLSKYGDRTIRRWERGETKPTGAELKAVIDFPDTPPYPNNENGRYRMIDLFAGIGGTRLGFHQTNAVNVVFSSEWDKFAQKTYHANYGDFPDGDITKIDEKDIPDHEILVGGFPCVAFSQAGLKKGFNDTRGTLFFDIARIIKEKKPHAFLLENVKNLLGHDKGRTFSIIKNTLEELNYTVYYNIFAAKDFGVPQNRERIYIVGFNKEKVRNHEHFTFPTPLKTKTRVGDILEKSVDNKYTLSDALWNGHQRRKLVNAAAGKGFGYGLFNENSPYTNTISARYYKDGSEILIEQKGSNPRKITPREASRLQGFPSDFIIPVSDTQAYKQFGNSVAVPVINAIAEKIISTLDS
Put plainly: stopped-flow fluorescence anisotropy; 100 uM AdoHcy; k1 226 uM-1 s-1, k-1 158 s-1, k2* 0.22 s-1, k-2* 0.50 s-1; EMSA: 50 mM Tris-HCl pH 7.5, 100 mM NaCl, 5 mM beta-mercaptoethanol, 0.1 mg/mL BSA, 25% glycerol, 100 uM AdoHcy, 37 C then room temperature, 2.5 nM DNA; stopped-flow: 50 mM Tris-HCl pH 7.5, 100 mM NaCl, 5 mM beta-mercaptoethanol, 25 C, 100 nM DNA. The settings on record: protein: recombinant; tags: N-terminal His-tag MRGS(H)6TDPLETC; label: TAMRA (bottom 33 or 35).

For series [2], the target named is T1, M.SsoII (monomer on DNA). The experiment in a line: stopped-flow fluorescence anisotropy; 100 uM AdoHcy; k1 181 uM-1 s-1, k-1 143 s-1, k2* 0.40 s-1, k-2* 1.5 s-1; EMSA: 50 mM Tris-HCl pH 7.5, 100 mM NaCl, 5 mM beta-mercaptoethanol, 0.1 mg/mL BSA, 25% glycerol, 100 uM AdoHcy, 37 C then room temperature, 2.5 nM DNA; stopped-flow: 50 mM Tris-HCl pH 7.5, 100 mM NaCl, 5 mM beta-mercaptoethanol, 25 C, 100 nM DNA. Particulars: protein: recombinant; tags: N-terminal His-tag MRGS(H)6TDPLETC; label: TAMRA (top 25 or bottom 33/35).

Series [3] addresses T1, M.SsoII (monomer on DNA). The experiment in a line: stopped-flow fluorescence anisotropy; 100 uM AdoMet; k1 390 uM-1 s-1, k-1 88 s-1, k2 1.13 s-1, k-2 9.6 s-1; EMSA: 50 mM Tris-HCl pH 7.5, 100 mM NaCl, 5 mM beta-mercaptoethanol, 0.1 mg/mL BSA, 25% glycerol, 100 uM AdoHcy, 37 C then room temperature, 2.5 nM DNA; stopped-flow: 50 mM Tris-HCl pH 7.5, 100 mM NaCl, 5 mM beta-mercaptoethanol, 25 C, 100 nM DNA. The settings on record: protein: recombinant; tags: N-terminal His-tag MRGS(H)6TDPLETC; label: TAMRA (position 5).

The target in series [4] is T2, M.SsoII (two subunits on DNA) (UniProt P34879 1-379).
T2 sequence: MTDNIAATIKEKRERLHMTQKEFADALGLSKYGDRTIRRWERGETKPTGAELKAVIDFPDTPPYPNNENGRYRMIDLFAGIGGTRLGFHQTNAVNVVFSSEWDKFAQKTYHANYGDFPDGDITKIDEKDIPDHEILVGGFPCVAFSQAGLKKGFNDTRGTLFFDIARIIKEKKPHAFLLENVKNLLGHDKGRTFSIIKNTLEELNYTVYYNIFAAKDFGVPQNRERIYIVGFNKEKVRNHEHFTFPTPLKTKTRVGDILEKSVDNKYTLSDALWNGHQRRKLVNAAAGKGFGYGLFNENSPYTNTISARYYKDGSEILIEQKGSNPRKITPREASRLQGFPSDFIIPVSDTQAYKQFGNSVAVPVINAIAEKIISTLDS
Put plainly: EMSA; 100 uM AdoHcy; C1 and C2; EMSA: 50 mM Tris-HCl pH 7.5, 100 mM NaCl, 5 mM beta-mercaptoethanol, 0.1 mg/mL BSA, 25% glycerol, 100 uM AdoHcy, 37 C then room temperature, 2.5 nM DNA; stopped-flow: 50 mM Tris-HCl pH 7.5, 100 mM NaCl, 5 mM beta-mercaptoethanol, 25 C, 100 nM DNA. The settings on record: protein: recombinant; tags: N-terminal His-tag MRGS(H)6TDPLETC; chain copies: 2; label: TAMRA (position 5).

The target of series [5] is T2, M.SsoII (two subunits on DNA). Put plainly: EMSA; 100 uM AdoHcy; cooperative, C2 much more than C1; EMSA: 50 mM Tris-HCl pH 7.5, 100 mM NaCl, 5 mM beta-mercaptoethanol, 0.1 mg/mL BSA, 25% glycerol, 100 uM AdoHcy, 37 C then room temperature, 2.5 nM DNA; stopped-flow: 50 mM Tris-HCl pH 7.5, 100 mM NaCl, 5 mM beta-mercaptoethanol, 25 C, 100 nM DNA. The settings on record: protein: recombinant; tags: N-terminal His-tag MRGS(H)6TDPLETC; chain copies: 2; label: TAMRA (internal, on dU C5, position 5).

Series [6] concerns the target T1, M.SsoII (monomer on DNA). Put plainly: stopped-flow fluorescence anisotropy; 100 uM AdoHcy; k1 352 uM-1 s-1, k-1 71 s-1, k2 2.30 s-1, k-2 12.8 s-1; EMSA: 50 mM Tris-HCl pH 7.5, 100 mM NaCl, 5 mM beta-mercaptoethanol, 0.1 mg/mL BSA, 25% glycerol, 100 uM AdoHcy, 37 C then room temperature, 2.5 nM DNA; stopped-flow: 50 mM Tris-HCl pH 7.5, 100 mM NaCl, 5 mM beta-mercaptoethanol, 25 C, 100 nM DNA. The settings on record: protein: recombinant; tags: N-terminal His-tag MRGS(H)6TDPLETC; label: TAMRA (internal, on dU C5, position 5).

Series [7] deals with T2, M.SsoII (two subunits on DNA). The experiment in a line: EMSA; 100 uM AdoHcy; C2* above 2:1 protein/DNA, second molecule presumably nonspecific; EMSA: 50 mM Tris-HCl pH 7.5, 100 mM NaCl, 5 mM beta-mercaptoethanol, 0.1 mg/mL BSA, 25% glycerol, 100 uM AdoHcy, 37 C then room temperature, 2.5 nM DNA; stopped-flow: 50 mM Tris-HCl pH 7.5, 100 mM NaCl, 5 mM beta-mercaptoethanol, 25 C, 100 nM DNA. Particulars: protein: recombinant; tags: N-terminal His-tag MRGS(H)6TDPLETC; chain copies: 2; label: TAMRA.

The target in series [8] is T1, M.SsoII (monomer on DNA). Put plainly: stopped-flow fluorescence anisotropy; 100 uM AdoMet; k1 386 uM-1 s-1, k-1 154 s-1, k2 0.68 s-1, k-2 6.5 s-1; EMSA: 50 mM Tris-HCl pH 7.5, 100 mM NaCl, 5 mM beta-mercaptoethanol, 0.1 mg/mL BSA, 25% glycerol, 100 uM AdoHcy, 37 C then room temperature, 2.5 nM DNA; stopped-flow: 50 mM Tris-HCl pH 7.5, 100 mM NaCl, 5 mM beta-mercaptoethanol, 25 C, 100 nM DNA. The settings on record: protein: recombinant; tags: N-terminal His-tag MRGS(H)6TDPLETC; label: TAMRA (position 21).

B1: 60met-mC (dsDNA)
DNA 1: GACTTACAGTTGATAGTATGAAGCTAGAGCCAGGTTGGCAGCATTCTACTCATGTACTTG
DNA 2: CAAGTACATGAGTAGAATGCTGCCAACCTGGCTCTAGCTTCATACTATCAACTGTAAGTC
modifications: 5-methylcytosine in top strand of methylation site
As to B1, the binding result in the series with M.SsoII (monomer on DNA) [1] is given as “binds”.

B2: 60met (dsDNA)
DNA 1: GACTTACAGTTGATAGTATGAAGCTAGAGCCAGGTTGGCAGCATTCTACTCATGTACTTG
DNA 2: CAAGTACATGAGTAGAATGCTGCCAACCTGGCTCTAGCTTCATACTATCAACTGTAAGTC
For B2, the binding result with M.SsoII (monomer on DNA) [2] is “binds”.

B3: 60reg-2 (dsDNA)
DNA 1: ACGTTCATAATTGGAATCTTTTCAGGACAAATTGTCCTTTTTCCAACACTTAATTCTGGT
DNA 2: ACCAGAATTAAGTGTTGGAAAAAGGACAATTTGTCCTGAAAAGATTCCAATTATGAACGT
Regarding B3, the binding result (in the series with M.SsoII (monomer on DNA) [3]; in series [4]) was “binds” each time.

B4: 60reg-3 (dsDNA)
DNA 1: ACGTTCATAATTGGAATCTGCTCAGGACAAATTGTCCTTGCTCCAACACTTAATTCTGGT
DNA 2: ACCAGAATTAAGTGTTGGAGCAAGGACAATTTGTCCTGAGCAGATTCCAATTATGAACGT
For B4, the binding result in series [4] is recorded as “binds”.

B5: 60reg-1 (dsDNA)
DNA 1: ACGTTCATAATTGGAATCAAAACAGGACAAATTGTCCTAAAACCAACACTTAATTCTGGT
DNA 2: ACCAGAATTAAGTGTTGGTTTTAGGACAATTTGTCCTGTTTTGATTCCAATTATGAACGT
As for B5, the binding result (in series [5]; in the series with M.SsoII (monomer on DNA) [6]) was “binds” in each case.

B6: 60half-1 (dsDNA)
DNA 1: ACGTTCATAATTGGAATCAAAACAGGACAAACATTATCAAAACCAACACTTAATTCTGGT
DNA 2: ACCAGAATTAAGTGTTGGTTTTGATAATGTTTGTCCTGTTTTGATTCCAATTATGAACGT
B6: in series [7], the binding result is “binds”.

B7: 60half-2 (dsDNA)
DNA 1: ACGTTCATAATTGGAATCAAAACCATTATCATTGTCCTAAAACCAACACTTAATTCTGGT
DNA 2: ACCAGAATTAAGTGTTGGTTTTAGGACAATGATAATGGTTTTGATTCCAATTATGAACGT
On to B7, for which, in series [7], the binding result was “binds”.

B8: 60reg-4 (dsDNA)
DNA 1: GAAAGTTTTTTCATGCACGTTCATAATTGGAATCAAAACAGGACAAATTGTCCTAAAACC
DNA 2: GGTTTTAGGACAATTTGTCCTGTTTTGATTCCAATTATGAACGTGCATGAAAAAACTTTC
B8: the binding result in the series with M.SsoII (monomer on DNA) [8] was “binds”.

The values are drawn from paper PMC6100179, “Kinetic Basis of the Bifunctionality of SsoII DNA Methyltransferase”.
